Experimental data: patent US20220411514A1 (TRUEBINDING, published 2022)

Tests used:
[1] = target: T1, Human Galectin-3 protein (Acro Biosystems, GA3-H5129) (human, UniProt P17931 2-250); assay: ELISA, INSR binding to coated Gal3 with 3 ug/mL antibody
T1 construct: bought; also called Gal3-ECD-His; Gal3-His; not shown: linker-spaced 6-histidine tag

[2] = target: T2, human Galectin-3 (Gal3) (human, UniProt P17931 2-250, limits assumed); assay: SPR Biacore T200, antibody captured, Gal3 analyte, 1:1 fit
T2 construct: also called hGal3; hGAL3

[3] = target: T3, His-enterokinase cleavage site (EK)-cynoGal3 (TrueBinding in-house antigen) (cynomolgus, UniProt A0A7N9CYL1 6-247); assay: SPR Biacore T200, protocol of Example 9
T3 construct: also called His-EK-cynoGal3; cynomolgus Gal3; not shown: His tag and enterokinase cleavage site

[4] = target: T2, human Galectin-3 (Gal3); assay: SPR Carterra LSA, protocol of Example 9
[5] = target: T3, His-enterokinase cleavage site …; assay: SPR Biacore T200, antibody captured, 1:1 fit
[6] = target: T2, human Galectin-3 (Gal3); assay: SPR Carterra LSA, antibody captured on Protein A/G, Gal3 analyte
[7] = target: T4, mouse Gal3 (mouse, UniProt P16110 2-264, limits assumed); assay: as above
[8] = target: T1, Human Galectin-3 protein (Acro …); assay: SPR sandwich binning, Carterra LSA
[9] = target: T5, Peptide 5 of Gal3 (human); assay: peptide ELISA, antibody as hIgG4(S228P) at 5 ug/mL
T5 peptide: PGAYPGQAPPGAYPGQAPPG

[10] = target: T6, Peptide 6 of Gal3 (human); assay: peptide ELISA, antibody as hIgG4(S228P) at 5 ug/mL
T6 peptide: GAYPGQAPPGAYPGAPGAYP

[11] = target: T2, human Galectin-3 (Gal3); assay: HDX-MS
[12] = target: T4, mouse Gal3; assay: SPR Carterra LSA, protocol of Example 9
[13] = target: T7, His-EK-ratGal3 (rat, UniProt P08699 2-262); assay: SPR Biacore T200, antibody captured by anti-human Fc, 1:1 fit
T7 construct: not shown: His tag and enterokinase cleavage site
T7 sequence (looked up): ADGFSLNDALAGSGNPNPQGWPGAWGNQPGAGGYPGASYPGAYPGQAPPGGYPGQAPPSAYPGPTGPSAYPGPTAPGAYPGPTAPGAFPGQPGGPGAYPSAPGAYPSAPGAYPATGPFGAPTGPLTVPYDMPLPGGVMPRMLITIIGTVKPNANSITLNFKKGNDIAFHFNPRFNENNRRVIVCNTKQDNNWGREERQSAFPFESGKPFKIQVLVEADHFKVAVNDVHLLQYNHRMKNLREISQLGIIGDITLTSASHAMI

T3 sequence (A0A7N9CYL1 entry or part of it): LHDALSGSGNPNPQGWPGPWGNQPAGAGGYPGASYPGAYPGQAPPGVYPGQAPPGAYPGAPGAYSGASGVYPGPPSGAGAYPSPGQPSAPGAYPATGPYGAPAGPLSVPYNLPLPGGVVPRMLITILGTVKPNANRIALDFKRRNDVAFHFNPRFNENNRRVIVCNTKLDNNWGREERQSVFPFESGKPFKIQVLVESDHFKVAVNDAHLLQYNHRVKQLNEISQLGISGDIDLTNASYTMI
T2 sequence (P17931 2-250 limits assumed): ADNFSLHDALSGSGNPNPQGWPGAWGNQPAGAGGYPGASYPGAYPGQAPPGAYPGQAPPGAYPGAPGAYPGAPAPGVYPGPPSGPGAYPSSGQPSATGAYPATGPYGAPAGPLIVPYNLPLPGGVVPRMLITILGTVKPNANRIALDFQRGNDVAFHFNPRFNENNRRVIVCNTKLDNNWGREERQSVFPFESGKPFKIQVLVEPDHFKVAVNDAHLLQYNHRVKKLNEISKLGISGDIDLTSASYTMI
T1 sequence (P17931 2-250): as the sequence (P17931 2-250 limits assumed) above
T4 sequence (P16110 2-264 limits assumed): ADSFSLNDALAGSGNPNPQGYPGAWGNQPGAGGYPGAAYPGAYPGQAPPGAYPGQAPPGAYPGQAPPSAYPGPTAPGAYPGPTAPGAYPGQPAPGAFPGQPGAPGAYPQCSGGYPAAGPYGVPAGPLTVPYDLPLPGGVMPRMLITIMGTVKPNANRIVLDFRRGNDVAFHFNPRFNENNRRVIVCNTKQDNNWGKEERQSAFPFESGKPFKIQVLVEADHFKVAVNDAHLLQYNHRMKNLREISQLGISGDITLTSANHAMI

B1: 3B11.2G2 (antibody, V domains shown)
VH: QIQLVQSGPELKKPGETVKISCKTSGYKFKTYVMSWVKQAPGKALKWMGWINTYSGVPTYADDFKGRFAFSLETSASTAYLEIINLKNEDTATYFCARDGNYGDPMDYWGQGTSVTVSS
VL: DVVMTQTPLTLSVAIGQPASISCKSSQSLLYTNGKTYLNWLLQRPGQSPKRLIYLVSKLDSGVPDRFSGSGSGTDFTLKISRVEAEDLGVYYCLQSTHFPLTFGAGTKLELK
- Gal3-INSR binding left, % of unblocked sample [1]: < 5%

B2: 9H2.2H10 (antibody, V domains shown)
VH: QVQLQQPGAELVGPGSSVKLSCKASGYTFTNYWIHWVKQRPLQGLEWIGNIDPSDSETHYNQKFKDKATLTVDKSSSTAYMQLSSLTSEDSAVYYCARHGYYDYWGQGTTLTVSS
VL: DIVMTQSHKFMSTSVGDRVSITCKASQDVSTAVAWYQQKPGQSPKLLIYWASTRHTGVPDRFTGSGSGTDYTLTISSVQAEDLALYYCQQHYTTPLTFGAGTKLELKR
- inhibition of Gal3-INSR binding, % [1]: ≤ 30%
- Kd [2]: 2.53 nM

B3: 19B5.2E6 (antibody, V domains shown)
VH: QIQLVQSGPELKKPGETVKISCKASGYTFTTYAMSWVKQAPGKGLKWMGWINTYSGVPTYADDLKGRFAFSLETSASTAYLQINNLKNEDTATYFCARGPYAMDYWGQGTSVTVSS
VL: DIQMTQTTSSLSASLGDRVTISCSASQGINNYLNWYQQKPDGTVKLLIYYASSLHSGVPSRFSGSGSGTDYSLTISNLEPEDIATYYCQQYSQVPYTFGSGTKLEIKR
- Gal3-INSR binding left, % of unblocked sample [1]: < 5%

B4: 23H9.2E4 (antibody, V domains shown)
VH: B3 VH
VL: DIQMTQTTSSLSASLGDRVTISCSASQGINNYLNWYQQKPDGTVKLLIYYASSLHSGVPSRFSGSGSGTDYSLTISNLEPEDIATYYCQQYSQVPYTFGSGTKLEIK
- Gal3-INSR binding left, % of unblocked sample [1]: < 5%

B5: TB006 (antibody, V domains shown)
VH: QVQLVQSGAEVKKPGASVKVSCKASGYSFTNYYMHWVRQAPGQRLEWMGWIYPGSGNTNYNEKFQGRVTITADTSASTAYMELSSLRSEDTAVYYCSTAPGGFDVWGQGTTVTVSS
VL: DIVMTQTPLSLSVTPGQPASISCKSSKSLLHSDGITYLYWYLQKPGQSPQLLIYRMSNLASGVPDRFSGSGSGTDFTLKISRVEAEDVGVYYCAQMLEFPLTFGQGTKLEIKR
- Kd [3]: 9.4 nM
- Kd [4]: 23 nM
- Kd [5]: 5.1 nM
- Kd [6]: 8.9 nM
- Kd [7]: 40000 nM

B6: 24D12.2H9 (antibody, V domains shown)
VH: QVQLKQSGPGLVQPSQSLSITCTVSGFSLTSYGVHWVRQAPGKGLEWLGVIWSGGSTDYNAAFMSRLSISKDNSKSQVFFKMNSLQADDTAIYYCAKSPDGYDVAWFGYWGQGTLVTVSA
VL: DIVMTQSHKFMSTSVGDRVSITCKASQDVRTAVAWYQQKPGQSPKLLIYWASTRHTGVPDRFTGSGSGTDFTLTLSNVQSEDLADYFCQQYSSYPWTFGGGTKLEIKR
- inhibition of Gal3-INSR binding, % [1]: ≤ 30%
- Kd [2]: 4.13 nM

B7: F847C.21H6 (antibody, V domains shown)
VH: QIQLVQSGPELKKPGETVKISCKASGYTFTIFGMNWVKQAPGKGLKWMGWVNTYTGEPTYADDFKGRFAFSLETSASTAYLQINNLKNEDTATYFCARGWFAYWGQGTLVTVSA
VL: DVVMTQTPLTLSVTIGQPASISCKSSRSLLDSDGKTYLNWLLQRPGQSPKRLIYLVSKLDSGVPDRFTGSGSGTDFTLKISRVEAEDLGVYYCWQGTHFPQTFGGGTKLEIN
- binding result [8]: binds
- binding result [9]: binds
- binding result [10]: binds

B8: 15G7.2A7 (antibody, V domains shown)
VH: EVQLQQSGPELVKPGASVKISCKASGYTFTDYYMNWVKQSHGKSLEWIGDINPNNGGTNYNQKFKGKATLTVDKSSSTAYMELRSLTSEDSAVYYCTSGYGFPYWGQGTLVTVSA
VL: DIQMNQSPSSLSASLGDTISITCRASQNINIWLSWYQQKPGNIPQLLIYKASNLHTGVPSRFSGSGSGTDFTLTISSLQPEDIATYYCLQGQSYPLTFGAGTKLVMKR
- inhibition of Gal3-INSR binding, % [1]: > 99%
- Kd [2]: 27.8 nM

B9: Arg 228-Val 292 truncated form of GLUT4 (other)
chain: RYLYIIQNLEGPARKSLKRLTGWADVSGVLAELKDEKRKLERERPLSLLQLLGSRTHRQPLIIAV
- binding result [11]: binds

B10: 13G4.2F8 (antibody, V domains shown)
VH: QVQLQQPGAELVKPGASVKLSCKASGYTFTSYWMHWVKQRPGQGLEWIGMIHPNSGSTDYNEKFKNKATLNVDKSSSTAYIQLSSLTSEDSAVYYCTRWGIYYYARDYWGQGTTLTVSS
VL: DIVMTQSQKFMSTSVGERVSITCKASQNVGTNVAWYQQKAGQSLELLIYGASNRHTGVPDRFTGSGSGTDFTLTITNVQSEDMTNYFCEQYSNFPLTFGAGTKLELKR
- inhibition of Gal3-INSR binding, % [1]: ≤ 30%
- Kd [2]: 18.4 nM

B11: 12G5.D7 (antibody, V domains shown)
VH: QVQLKQSGAELVRPGASVKLSCKASGYTFTDYYINWVKQRPGQGLEWIARIYPGTGNTDYNEKFKGRATLTAEKSSSTAYMQLSSLTSEDSAVYFCARFAYYYGSGGYFDYWGHGTTLTVSS
VL: DILMTQSPSSMSVSLGDTVSITCHASQGINSNMGWLQQKPGKSFKGLIYHATNLEDGVPSRFSGSGSGADYSLTISSLESEDFADYYCVQYAQFPPTFGSGTKLEIK
- inhibition of Gal3-INSR binding, % [1]: ≤ 30%
- Kd [2]: 1.9 nM

B12: TB001 (antibody, V domains shown)
VH: QVQLVQSGSELKKPGASVKVSCKASGYTFTNYGMNWVRQAPGQGLKWMGWINTNTGEPTYVEEFTGRFVFSLETSVSTAYLQISSLKAEDTAVYFCAPYDNFFAYWGQGTTVTVSS
VL: DIVLTQSPLSLPVTPGEPASISCRSSKSLLYKDGKTYLNWFLQKPGQSPQLLIYLMSTHASGVPDRFSGSGSGTDFTLKISRVEAEDVGVYYCQQLVDYPLTFGGGTKLEIKR
- Kd [3]: 34 nM
- Kd [4]: 9.7 nM
- Kd [12]: 4.2 nM
- Kd [5]: 8.9 nM
- Kd [13]: 14 nM
- Kd [6]: 3.6 nM
- Kd [7]: 2.3 nM
